Source: article PMC9160799, “PET Imaging of Acidic Tumor Environment With ^89Zr-labeled pHLIP Probes” (Frontiers in Oncology, 2022)
Entries after “also recorded” stand apart in the source; their conditions may differ. Like-named read-outs stand apart in the source and are kept apart here. Square brackets hold non-standard residues; d marks the D form. Peptide text beside a SMILES is read from it. * marks the point of attachment. X1 = CC(=O)N(O)CCCCCNC(=O)CCC(=O)N(O)CCCCCNC(=O)CCC(=O)N(O)CCCCCNC(=O)CCC(=O)N(O)CCCCCNC(=S)Nc1ccc(NC(=S)*)cc1

Tests used:
[1] = system: kidney uptake of [89Zr]Zr-DFOsqa-Lys-Var3; assay: Kidney-blocking study (PET imaging); assay type: in vivo, healthy female SCID mice; conditions: drug IV 30 min before 7.4 MBq [89Zr]Zr-DFOsqa-Lys-Var3 (1.2 nmol); two doses per drug, n=2 each; PET 24 h p.i. vs control mice
Protocol: (§1) The imaging and biodistribution studies were performed with male (RM-1 model) and female (4T1 model) athymic nude mice and the kidney-blocking experiments were performed with female SCID mice received from Charles River Laboratories (Stone Ridge, NY). After arrival, the mice were kept in the MSK vivarium for one week before any experimental handling was performed. The animals were allowed free access to water and food, and all animal care and experimental procedures were approved by the Institutional Animal Care and Use Committee (IACUC). For the subcutaneous allografts, a 1-to-1 ratio of Corning Matrigel Matrix and the cell solution was prepared and stored on ice for the injections. Each mouse received a subcutaneous injection of 100 µL (50 µL cell solution, viability > 90%, + 50 µL Matrigel) into the flank on the level of the right shoulder. The injections were performed under anesthesia (2% isoflurane, Baxter Healthcare, Deerfield, IL, USA). Palpable tumors of similar size (100–300 mm^3) developed 5–8 days after grafting.
PET images were obtained at the respective timepoints with the mice under anesthesia (2% isoflurane) on a microPET Focus 120 (Concorde Microsystems) or an Inveon PET-CT (Siemens) rodent scanner. All images were analyzed using the Medical Imaging Data Examiner Amide (version 0.9.0) or the Inveon reconstruction software suite. The counting rates in the reconstructed images were converted to percent of injected dose per weight (%ID/g) by applying a system-specific calibration factor. At the final timepoint, the remaining mice were euthanized (by CO2 asphyxiation, followed by cervical dislocation) and their tumors were resected for histological analysis.
Additional experiments were performed to investigate the influence of various kidney-uptake blockers and diuretics. Healthy female SCID mice received a “blocking agent” 30 minutes prior to the injection of [^89Zr]Zr-DFOsqa-Lys-Var3 (7.4 MBq/200 µCi, 1.2 nmol). […] The experimental set-up can be found in Table S6 .
Table S6. Summary of the kidney-blocking study. Healthy female SCID mice (2 mice per experiment/ dosage + 2 control mice without treatment, total of 22 mice) received a blocking agent intravenously 30 minutes prior to the injection of 7.4 MBq/200 µCi [89Zr]Zr-DFOsqa-Lys-Var3 (1.2 nmol pHLIP).
The drug dose was calculated as weight of drug (mg) per weight of mouse (kg). A potential kidney […]
calibrated images to the control mice (24 hours post injection). No drug led to a significant reduction […]
drug (IV 30 min before dose [mg/kg] effect on kidney mechanism of action [89Zr]Zr-pHLIP) (n=2) uptake […]
and water from the body; acts as a diuretic […]
organic anion transporter; blocks the uptake of organic anions […]
tubule via inhibition of the Na/Cl symporter; acts as a diuretic […]
increased – serum levels decreased

[2] = Post-mortem biodistribution, RM-1 tumor model; assay type: in vivo, male athymic nude mice; conditions: male, athymic nude, mouse, iv, 1.2 nmol, total radioactivity; for tissue uptake at 48 h: RM-1, male athymic nude mice, 48 h p.i., i.v. 1.2 nmol, 7.4 MBq, gamma counting, mean ± S.D., n=4
Protocol: The media were provided by the MSK Media Preparation Core. […] Another aliquot was diluted with the medium so that 50 µL contained 1×10^6 cells.
as §1, with “USA).” for “USA). Palpable tumors of similar size (100–300 mm^3) developed 5–8 days after grafting.”
The mice were intravenously injected (tail vein) with the radiolabeled pHLIP conjugates (1.2 nmol, 7.4 MBq/200 µCi, 100 µL, in sterile filtered PBS). The activity of the syringe prior to injection and after injection was used to determine the percent of injectate administered.
For the biodistribution studies the tumor-bearing mice were randomized before the injections. Only mice with suitable tumors (150–300 mm^3) were utilized. An exception was made for the 120-hour timepoint, for which only mice with smaller tumors (150 mm^3) were selected. The mice were grouped in cohorts of four. At the respective timepoint, the mice were euthanized (by CO2 asphyxiation, followed by cervical dislocation) and their blood was collected by cardiac puncture as a terminal procedure, followed by quick removal of the tumors. After this, the other organs/samples were collected. […] The exact activities of all samples of one mouse were determined by an Capintec® CRC-55tR dose calibrator. These decay-corrected measurements were used to determine a calibration factor and calibrate all counts to the corresponding activities. Activity concentrations were calculated as percentage injected dose per tissue weight (%ID/g wet tissue). All data was processed and visualized using Origin 8.5.

SMILES: CC(=O)Nc1nnc(S(N)(=O)=O)s1 [acetazolamide]
- effect on kidney uptake [1]: not significant; also recorded: none of these drugs led to a significant reduction of kidney uptake

SMILES: CN(C)c1nc(N)c(C(=O)NC(=N)N)nc1Cl [5-(N,N-dimethyl)amiloride]
- effect on kidney uptake [1]: not significant; also recorded: none of these drugs led to a significant reduction of kidney uptake

SMILES: NS(=O)(=O)c1cc(C2(O)NC(=O)c3ccccc32)ccc1Cl (stereo not shown) [chlorthalidone]
- effect on kidney uptake [1]: not significant; also recorded: none of these drugs led to a significant reduction of kidney uptake

SMILES: CC(=O)N[C@H](C)C(=O)N[C@H](CCCCNC(=S)Nc1ccc(NC(=S)NCCCCCN(O)C(=O)CCC(=O)NCCCCCN(O)C(=O)CCC(=O)NCCCCCN(O)C(=O)CCC(=O)NCCCCCN(O)C(C)=O)cc1)C(=O)N[C@H](CC(=O)O)C(=O)N[C@H](CC(=O)O)C(=O)N[C@H](CCC(N)=O)C(=O)N[C@H](CC(N)=O)C(=O)N1CCC[C@@H]1C(=O)N[C@H](Cc1c[nH]c2ccccc12)C(=O)N[C@H](CCCNC(=N)N)C(=O)N[C@H](C)C(=O)N[C@H](Cc1ccc(O)cc1)C(=O)N[C@H](CC(C)C)C(=O)N[C@H](CC(=O)O)C(=O)N[C@H](CC(C)C)C(=O)N[C@H](CC(C)C)C(=O)N[C@H](Cc1ccccc1)C(=O)N1CCC[C@@H]1C(=O)N[C@@H](C(=O)N[C@H](CC(=O)O)C(=O)N[C@@H](C(=O)N[C@H](CC(C)C)C(=O)N[C@H](CC(C)C)C(=O)N[C@H](CC(C)C)C(=O)N[C@H](CC(=O)O)C(=O)N[C@H](CC(C)C)C(=O)N[C@H](CC(C)C)C(=O)N[C@H](Cc1c[nH]c2ccccc12)C(=O)N[C@H](C)C(=O)O)[C@H](C)O)[C@H](C)O [DFO*-Lys-Var3] (Ac-[dA][dK](X1)[dD][dD][dQ][dN][dP][dW][dR][dA][dY][dL][dD][dL][dL][dF][dP][dT][dD][dT][dL][dL][dL][dD][dL][dL][dW][dA]-OH; C-terminus assumed)
- tissue uptake at 48 h ([2]; in vivo, read-out: Tibia uptake): 1.1 ± 0.5 %ID/g

SMILES: CC[C@@H](C)[C@@H](NC(=O)[C@H]1CCCN1C(=O)[C@@H](CC(N)=O)NC(=O)[C@@H](CCC(N)=O)NC(=O)[C@@H](CCC(=O)O)NC(=O)[C@@H](CCCCNC(=S)Nc1ccc(NC(=S)NCCCCCN(O)C(=O)CCC(=O)NCCCCCN(O)C(=O)CCC(=O)NCCCCCN(O)C(C)=O)cc1)NC(=O)[C@@H](C)NC(C)=O)C(=O)N[C@H](Cc1ccc(O)cc1)C(=O)N[C@H](Cc1c[nH]c2ccccc12)C(=O)N[C@H](C)C(=O)N[C@H](CCCNC(=N)N)C(=O)N[C@H](Cc1ccc(O)cc1)C(=O)N[C@H](C)C(=O)N[C@H](CC(=O)O)C(=O)N[C@H](Cc1c[nH]c2ccccc12)C(=O)N[C@H](CC(C)C)C(=O)N[C@H](Cc1ccccc1)C(=O)N[C@@H](C(=O)N[C@@H](C(=O)N1CCC[C@@H]1C(=O)N[C@H](CC(C)C)C(=O)N[C@H](CC(C)C)C(=O)N[C@H](CC(C)C)C(=O)N[C@H](CC(C)C)C(=O)N[C@H](CC(=O)O)C(=O)N[C@H](CC(C)C)C(=O)N[C@H](C)C(=O)N[C@H](CC(C)C)C(=O)N[C@H](CC(C)C)C(=O)N[C@@H](C(=O)N[C@H](CC(=O)O)C(=O)N[C@H](C)C(=O)N[C@H](CC(=O)O)C(=O)N[C@H](CCC(=O)O)C(=O)NCC(=O)N[C@@H](C(=O)NCC(=O)O)[C@H](C)O)C(C)C)[C@H](C)O)[C@H](C)O [DFO-Lys-WT]
- tissue uptake at 48 h ([2]; in vivo, read-out: Brain uptake): 0.03 ± 0.03 %ID/g
- tissue uptake at 48 h ([2]; in vivo, read-out: Kidneys uptake): 14.2 ± 1.2 %ID/g
- tissue uptake at 48 h ([2]; in vivo, read-out: Liver uptake): 14.8 ± 4.7 %ID/g
- tissue uptake at 48 h ([2]; in vivo, read-out: Lungs uptake): 11.5 ± 0.4 %ID/g
- tissue uptake at 48 h ([2]; in vivo, read-out: Muscle uptake): 0.3 ± 0.08 %ID/g
- tissue uptake at 48 h ([2]; in vivo, read-out: Pancreas uptake): 0.9 ± 0.4 %ID/g
- tissue uptake at 48 h ([2]; in vivo, read-out: Skin uptake): 1.5 ± 0.2 %ID/g
- tissue uptake at 48 h ([2]; in vivo, read-out: Spleen uptake): 25.8 ± 5.5 %ID/g
- tissue uptake at 48 h ([2]; in vivo, read-out: Tumor uptake): 1.6 ± 0.1 %ID/g
- tissue to tissue ratio at 48 h ([2]; tumor / muscle, RM-1 model, 48-hour timepoint, read-out: tumor-to-muscle uptake-ratio): 5.5 ± 1.5

SMILES: CC[C@@H](C)[C@@H](NC(=O)[C@H]1CCCN1C(=O)[C@@H](CC(N)=O)NC(=O)[C@@H](CCC(N)=O)NC(=O)[C@@H](CCC(=O)O)NC(=O)[C@@H](CCCCNC(=S)Nc1ccc(NC(=S)NCCCCCN(O)C(=O)CCC(=O)NCCCCCN(O)C(=O)CCC(=O)NCCCCCN(O)C(C)=O)cc1)NC(=O)[C@@H](C)NC(C)=O)C(=O)N[C@H](Cc1ccc(O)cc1)C(=O)N[C@H](Cc1c[nH]c2ccccc12)C(=O)N[C@H](C)C(=O)N[C@H](CCCNC(=N)N)C(=O)N[C@H](Cc1ccc(O)cc1)C(=O)N[C@H](C)C(=O)N[C@H](CC(=O)O)C(=O)N[C@H](Cc1c[nH]c2ccccc12)C(=O)N[C@H](CC(C)C)C(=O)N[C@H](Cc1ccccc1)C(=O)N[C@@H](C(=O)N[C@@H](C(=O)N1CCC[C@@H]1C(=O)N[C@H](CC(C)C)C(=O)N[C@H](CC(C)C)C(=O)N[C@H](CC(C)C)C(=O)N[C@H](CC(C)C)C(=O)N[C@H](CC(=O)O)C(=O)N[C@H](CC(C)C)C(=O)N[C@H](C)C(=O)N[C@H](CC(C)C)C(=O)N[C@H](CC(C)C)C(=O)N[C@@H](C(=O)N[C@H](CC(=O)O)C(=O)N[C@H](C)C(=O)N[C@H](CC(=O)O)C(=O)N[C@H](CCC(=O)O)C(=O)NCC(=O)N[C@@H](C(=O)NCC(=O)O)[C@H](C)O)C(C)C)[C@H](C)O)[C@H](C)O (89Zr complex, metal not drawn) [DFO-Lys-WT]
- tissue uptake at 48 h ([2]; blood, read-out: Blood uptake): 0.1 ± 0.03 %ID/g
- tissue uptake at 48 h ([2]; tibia, read-out: Tibia uptake): 2.3 ± 0.5 %ID/g
